The source of these data is article PMC1904298.

This data set concerns ϕC31 integrase (Streptomyces phage ϕC31?). Nature of the data set: EMSA.

The substance attB C+15G, 72 bp fragment showed a K half of 72.7 nM.

On to attB C-2A:G+2T, 72 bp fragment, for which the K half worked out at 56.7 nM.

For the substance attB G+16A, 72 bp fragment, the K half worked out at 53.3 nM.

Substance attB G-16T, 72 bp fragment returned a K half of 66 nM.

On to attB T-15C, 72 bp fragment, for which the K half was 68.3 nM.

In the case of attB G+2C, 72 bp fragment, the K half came out at 58.3 nM.

Take attB wt, 72 bp fragment: the K half was 61.3 nM.

attB C-2G, 72 bp fragment came in with a K half of 55.7 nM.

Substance attB G-16T:G+16A, 72 bp fragment had a K half of 61.3 nM.
